Patent US20170015742A1 (published 2017)

Columns and labels:
[1] = target: T1, human VEGF 121 (PR-1515941) (human, UniProt P15692 207-395); assay: SPR (Biacore), mAb captured by anti-human Fc, antigen injected
T1 construct: Recombinant isoform; also called hVEGF121
T1 sequence: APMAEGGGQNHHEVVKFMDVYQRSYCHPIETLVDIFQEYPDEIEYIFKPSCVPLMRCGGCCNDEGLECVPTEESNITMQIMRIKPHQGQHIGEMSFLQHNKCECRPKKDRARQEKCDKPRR
Protocol: (§1) Unreacted moieties on the biosensor surface were blocked with ethanolamine. For kinetic analysis, rate equations derived from the 1:1 Langmuir binding model were fitted simultaneously to multiple antigen injections (using global fit analysis) with the use of Scrubber 2 (BioLogic Software), Biacore Biaevaluation 4.0.1 software or Biacore T100 Evaluation software. Purified antibodies or DVD-Ig molecules were diluted in running buffer for capture across goat anti-human Fc reaction surfaces. Antibodies or DVD-Ig molecules to be captured as a ligand (1 μg/ml) were injected over reaction matrices at a flow rate of 10 μl/minute. During the assay, all measurements were referenced against the capture surface alone (i.e., with no captured antibody or DVD-Ig molecule). […] The equilibrium dissociation constant KD (M) of the reaction between antibodies and the target antigen was then calculated from the kinetic rate constants by the following formula: KD=Koff/Kₒₙ. Binding was recorded as a function of time and kinetic rate constants were calculated. In this assay, on-rates as fast as 10⁶M⁻¹s⁻¹ and off-rates as slow as 10⁻⁶ s⁻¹ could be measured.

[2] = target: T2, human VEGF 111 (PR-1520687) (human, UniProt P15692-10 27-137); assay: as above
T2 construct: also called hVEGF111
T2 sequence (looked up): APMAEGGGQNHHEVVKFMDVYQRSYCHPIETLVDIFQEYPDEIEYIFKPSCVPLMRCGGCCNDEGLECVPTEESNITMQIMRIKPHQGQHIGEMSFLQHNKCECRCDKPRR
Protocol: as §1

[3] = target: T3, human VEGF 165 (PR-1350437) (human, UniProt P15692 207-395); assay: as above
T3 construct: Purified recombinant protein; also called hVEGF165
Protocol: as §1

[4] = target: T4, human PDGF-B (PR-1373790) (human, UniProt P01127 82-190); assay: SPR (Biacore), binding protein captured by anti-human Fc, antigen injected
T4 construct: Soluble recombinant PDGF-BB homodimer; also called human PDGF-BB; hPDGF-BB
Protocol: as §1

[5] = target: T1, human VEGF 121 (PR-1515941); assay: as above
Protocol: as §1

[6] = target: T5, cyno PDGF-B (PR-1575400) (cynomolgus monkey, UniProt P01127 82-190 (human entry), limits assumed); assay: as above
T5 construct: Recombinant; also called cynomolgus monkey PDGF-BB; cynoPDGF-BB
T5 chain: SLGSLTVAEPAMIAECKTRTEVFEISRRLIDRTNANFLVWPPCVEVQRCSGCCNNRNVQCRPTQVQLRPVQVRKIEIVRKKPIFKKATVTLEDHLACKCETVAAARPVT
Protocol: as §1

[7] = target: T6, mouse PDGF-B (PR-1577160) (mouse, UniProt P31240 82-190); assay: as above
T6 construct: Recombinant; also called mouse PDGF-BB; mPDGF-BB
T6 sequence (P31240 82-190 limits assumed): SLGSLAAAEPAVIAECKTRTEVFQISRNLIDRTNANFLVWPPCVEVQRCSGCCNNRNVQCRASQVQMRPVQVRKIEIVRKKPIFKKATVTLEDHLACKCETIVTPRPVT
Protocol: as §1

[8] = target: T2, human VEGF 111 (PR-1520687); assay: as above
Protocol: as §1

[9] = target: T3, human VEGF 165 (PR-1350437); assay: as above
Protocol: as §1

[10] = target: T7, recombinant human PDGF-BB (human, UniProt P01127 82-190); assay: cell-based or functional assay
[11] = target: T8, recombinant human VEGF165 (human, UniProt P15692 207-395); assay: cell-based or functional assay
[12] = target: T7, recombinant human PDGF-BB; assay: competition ELISA: DVD-Ig titrated against biotinylated hPDGF-BB binding to coated hPDGF-Rbeta-Fc
Protocol: Plates were then washed four times with wash buffer (TBS, 0.05% Tween-20) and blocked with Superblock blocking buffer (Thermo Scientific, cat#37535). During the blocking step, supernatants, antibodies, benchmark compounds or DVD-Ig were diluted in assay diluent (10% Superblock containing 0.05% surfactamps) and an eight point titration of each sample molecule was performed. […] Following incubation, plates were washed four times with wash buffer. Detection reagent Streptavidin-polyHRP-40 (Fitzgerald, cat#65r-s104phrp) was diluted in assay diluent and added to plates (50 μL) for 45 minutes at 25° C. with shaking. Plates were washed four times with wash buffer and developed with the addition of Enhanced K-blue TMB substrate (Neogen, cat#308177). The reaction was stopped with 2N sulfuric acid (VWR, cat# BDH3500-1) and the absorbance was read at 450 nm-570 nm. […] Data was analyzed using Softmax Pro 4.8 software and IC₅₀ values calculated using a sigmoidal dose response (variable slope) fit in GraphPad Prism 5.

[13] = target: T8, recombinant human VEGF165; assay: competition ELISA: DVD-Ig titrated against biotinylated hVEGF165 binding to coated hVEGFR2-Fc
Protocol: To identify molecules that could block the binding of hVEGF₁₆₅ to the hVEGF-R2 (KDR/Flk-1) receptor, a competition ELISA was performed. […] Plates were then washed four times with wash buffer (TBS, 0.05% Tween-20) and blocked with Superblock blocking buffer (Thermo Scientific, cat#37535). […] The pre-incubated sample/hVEGF₁₆₅ complex was added to the coated plate at 50 μL in duplicate and incubated for 30 minutes at 25° C. with shaking. Following incubation, plates were washed four times with wash buffer. Streptavidin-polyHRP-40 (Fitzgerald cal#65r-s104phrp) was diluted in assay diluent (10% Superblock containing 0.05% surfactamps) and added to plates (50 μL) for 45 minutes at 25° C. with shaking. Plates were washed four times with wash buffer and developed with the addition of Enhanced K-blue TMB substrate (Neogen cat#308177). The reaction was stopped with 2N sulfuric acid (VWR, cat# BDH3500-1) and the absorbance was read at 450 nm-570 nm. A decrease in observed optical density indicates the test molecule is blocking the hVEGF₁₆₅ binding to the hVEGF-R2-Fc. Data was analyzed using Softmax Pro 4.8 software and IC₅₀ values calculated using a sigmoidal dose response (variable slope) fit in GraphPad Prism 5.

[14] = target: T4, human PDGF-B (PR-1373790); assay: SPR (Biacore), mAb captured by anti-human Fc, antigen injected
Protocol: as §1

[15] = target: T5, cyno PDGF-B (PR-1575400); assay: as above
Protocol: as §1

[16] = target: T6, mouse PDGF-B (PR-1577160); assay: as above
Protocol: as §1

B1: AB642 (9E10.1), PR-1594047 (antibody, V domains shown)
VH: EIQLVQSGSELKKPGASVKVSCKASGYTFTNYGMYWVKQAPGQGLEYMGWIDTETGRPTYADDFKGRFVFSLDTSVSTAYLQISSLKAEDTAVYFCARWSGDTTGIRGPWFAYWGQGTLVTVSS
VL: DIRMTQSPSSLSASVGDRVTIECLASEDIYSDLAWYQQKPGKSPKLLIYNANGLQNGVPSRFSGSGSGTDYSLTISSLQPEDVATYFCQQYNYFPGTFGQGTKLEIK
notes: Parental anti-VEGF mAb of PR-1610561; Humanized IgG; also called hBEW-9E10.1
- Kd [1]: 0.021 nM
- koff [1]: 6.8e-05 s⁻¹
- kon [1]: 3.2e+06 M⁻¹ s⁻¹
- Kd [2]: 0.058 nM
- koff [2]: 0.0001 s⁻¹
- kon [2]: 1.8e+06 M⁻¹ s⁻¹
- Kd [3]: 0.0018 nM
- koff [3]: 2.8e-05 s⁻¹
- kon [3]: 1.6e+07 M⁻¹ s⁻¹

B2: 9E10.1-GS-33675 anti-VEGF/anti-PDGF DVD-Ig (PR-1610561) (bispecific antibody, human IgG1, kappa, L234A L235A)
heavy: EIQLVQSGSELKKPGASVKVSCKASGYTFTNYGMYWVKQAPGQGLEYMGWIDTETGRPTYADDFKGRFVFSLDTSVSTAYLQISSLKAEDTAVYFCARWSGDTTGIRGPWFAYWGQGTLVTVSSGGGGSGGGGSEVTLRESGPALVKPTQTLTLTCTFSGFSLSTYGMGVGWIRQPPGKALEWLANIWWDDDKYYNPSLKNRLTISKDTSKNQVVLTMTNMDPVDTATYYCARIESSGPKYSFDYWGQGTMVTVSSASTKGPSVFPLAPSSKSTSGGTAALGCLVKDYFPEPVTVSWNSGALTSGVHTFPAVLQSSGLYSLSSVVTVPSSSLGTQTYICNVNHKPSNTKVDKKVEPKSCDKTHTCPPCPAPEAAGGPSVFLFPPKPKDTLMISRTPEVTCVVVDVSHEDPEVKFNWYVDGVEVHNAKTKPREEQYNSTYRVVSVLTVLHQDWLNGKEYKCKVSNKALPAPIEKTISKAKGQPREPQVYTLPPSREEMTKNQVSLTCLVKGFYPSDIAVEWESNGQPENNYKTTPPVLDSDGSFFLYSKLTVDKSRWQQGNVFSCSVMHEALHNAYTQKSLSLSPGK
light: DIRMTQSPSSLSASVGDRVTIECLASEDIYSDLAWYQQKPGKSPKLLIYNANGLQNGVPSRFSGSGSGTDYSLTISSLQPEDVATYFCQQYNYFPGTFGQGTKLEIKGGSGGGGSGGEIVLTQSPGTLSLSPGERATLSCRASSGSIWYSFVSWYQQKPGQAPRLLIYADDQRASGIPDRFSGSGSGTDFTLTISRLEPEDFAVYYCQSYGINIDVVFGGGTKVEIKRTVAAPSVFIFPPSDEQLKSGTASVVCLLNNFYPREAKVQWKVDNALQSGNSQESVTEQDSKDSTYSLSSTLTLSKADYEKHKVYACEVTHQGLSSPVTKSFNRGEC
notes: DVD-Ig: outer domain hBEW-9E10.1 (VEGF), inner domain CL-33675 (PDGF), linkers GS-H10 / GS-L10(dR), human IgG1 L234A, L235A, H435A, kappa; Lot 2213329; also called hu VEGF 9E10.1-GS-hu PDGF 33675 [hu IgG1/k]; LALA H435A
- Kd [4]: ≤ 0.0052 nM
- koff [4]: 5.2e-05 s⁻¹
- kon [4]: ≥ 1e+07 M⁻¹ s⁻¹
- Kd [5]: 0.23 nM
- koff [5]: 4.1e-05 s⁻¹
- kon [5]: 180000 M⁻¹ s⁻¹
- Kd [6]: ≤ 0.00081 nM
- koff [6]: 8.1e-06 s⁻¹
- kon [6]: ≥ 1e+07 M⁻¹ s⁻¹
- Kd [7]: ≤ 0.0052 nM
- koff [7]: 5.2e-05 s⁻¹
- kon [7]: ≥ 1e+07 M⁻¹ s⁻¹
- Kd [8]: 0.29 nM
- koff [8]: 4.3e-05 s⁻¹
- kon [8]: 150000 M⁻¹ s⁻¹
- Kd [9]: 0.065 nM
- koff [9]: 3.4e-05 s⁻¹
- kon [9]: 520000 M⁻¹ s⁻¹

B3: 4G8.3-GS(9)-9E8.4 (g) DVD-Ig (PR-1572102) (bispecific antibody, human IgG1, kappa, L234A L235A)
heavy: EVQLVQSGSELKKPGASVKVSCKASGYTFTNYGMYWVRQAPGQGLEWMGWINTETGKPTYADDFKGRFVFSLDTSVSTAYLQISSLKAEDTAVYYCARTNYYYRSYIFYFDYWGQGTMVTVSSGGGGSGGGGSEVTLRESGPALVKPTQTLTLTCTFSGFSLSTYGMGVGWIRQPPGKALEWLANIWWDDDKYYNPSLKNRLTISKDTSKNQVVLTMTNMDPVDTATYYCARIESIGTTYSFDYWGQGTMVTVSSASTKGPSVFPLAPSSKSTSGGTAALGCLVKDYFPEPVTVSWNSGALTSGVHTFPAVLQSSGLYSLSSVVTVPSSSLGTQTYICNVNHKPSNTKVDKKVEPKSCDKTHTCPPCPAPEAAGGPSVFLFPPKPKDTLMISRTPEVTCVVVDVSHEDPEVKFNWYVDGVEVHNAKTKPREEQYNSTYRVVSVLTVLHQDWLNGKEYKCKVSNKALPAPIEKTISKAKGQPREPQVYTLPPSREEMTKNQVSLTCLVKGFYPSDIAVEWESNGQPENNYKTTPPVLDSDGSFFLYSKLTVDKSRWQQGNVFSCSVMHEALHNAYTQKSLSLSPGK
light: DTVLTQSPATLSLSPGERATLSCRASESVSTHMHWYQQKPGQAPRLLIYGASNLESGVPARFSGSGSGTDFTLTISSLEPEDFAVYFCQQSWNDPFTFGQGTKLEIKRGGSGGGGSGEFVLTQSPGTLSLSPGERATLSCERSSGDIGDSYVSWYQQKPGQAPRLVIYADDQRPSGIPDRFSGSGSGTDFTLTISRLEPEDFAVYYCQSYDINIDIVFGGGTKVEIKRTVAAPSVFIFPPSDEQLKSGTASVVCLLNNFYPREAKVQWKVDNALQSGNSQESVTEQDSKDSTYSLSSTLTLSKADYEKHKVYACEVTHQGLSSPVTKSFNRGEC
notes: DVD-Ig, outer hBDB-4G8.3 (VEGF), inner hBDI-9E8.4 (PDGF); IgG1 L234A, L235A, H435A / kappa; also called 4G8.3-GS-9E8.4 (g); DVD-Ig-1
- NIH-3T3 hPDGF-BB Potency IC50 [10]: 0.528 nM
- HMVEC-d hVEGF165 Potency IC50 [11]: 0.417 nM
- IC50 [12]: > 5 nM
- IC50 [13]: 0.157 nM

B4: CL-33675, PR-1593725 (antibody, V domains shown)
VH: EVTLRESGPALVKPTQTLTLTCTFSGFSLSTYGMGVGWIRQPPGKALEWLANIWWDDDKYYNPSLKNRLTISKDTSKNQVVLTMTNMDPVDTATYYCARIESSGPKYSFDYWGQGTMVTVSS
VL: EIVLTQSPGTLSLSPGERATLSCRASSGSIWYSFVSWYQQKPGQAPRLLIYADDQRASGIPDRFSGSGSGTDFTLTISRLEPEDFAVYYCQSYGINIDVVFGGGTKVEIK
notes: also called CL-33675-IgG
- Kd [14]: ≤ 0.00058 nM
- koff [14]: 5.8e-06 s⁻¹
- kon [14]: ≥ 1e+07 M⁻¹ s⁻¹
- Kd [15]: ≤ 0.0013 nM
- koff [15]: 1.3e-05 s⁻¹
- kon [15]: ≥ 1e+07 M⁻¹ s⁻¹
- Kd [16]: ≤ 0.00058 nM
- koff [16]: 5.8e-06 s⁻¹
- kon [16]: ≥ 1e+07 M⁻¹ s⁻¹
